Test results taken from publication PMC2806190 (Cell, 2009).
Values belong to the molecule of their own block, whether it stands above or below them.

What was measured:
[1] = target: Sec39 (residues 1–709) (S. cerevisiae) (UniProt Q12745)
[2] = target: Dsl1 (residues 1–754) (S. cerevisiae) (UniProt P53847)
Sec39 (residues 1–709) [3] = target: T1, Sec39 (residues 1–709) (S. cerevisiae, UniProt Q12745 1-709); experiment: SEC
T1 sequence (looked up): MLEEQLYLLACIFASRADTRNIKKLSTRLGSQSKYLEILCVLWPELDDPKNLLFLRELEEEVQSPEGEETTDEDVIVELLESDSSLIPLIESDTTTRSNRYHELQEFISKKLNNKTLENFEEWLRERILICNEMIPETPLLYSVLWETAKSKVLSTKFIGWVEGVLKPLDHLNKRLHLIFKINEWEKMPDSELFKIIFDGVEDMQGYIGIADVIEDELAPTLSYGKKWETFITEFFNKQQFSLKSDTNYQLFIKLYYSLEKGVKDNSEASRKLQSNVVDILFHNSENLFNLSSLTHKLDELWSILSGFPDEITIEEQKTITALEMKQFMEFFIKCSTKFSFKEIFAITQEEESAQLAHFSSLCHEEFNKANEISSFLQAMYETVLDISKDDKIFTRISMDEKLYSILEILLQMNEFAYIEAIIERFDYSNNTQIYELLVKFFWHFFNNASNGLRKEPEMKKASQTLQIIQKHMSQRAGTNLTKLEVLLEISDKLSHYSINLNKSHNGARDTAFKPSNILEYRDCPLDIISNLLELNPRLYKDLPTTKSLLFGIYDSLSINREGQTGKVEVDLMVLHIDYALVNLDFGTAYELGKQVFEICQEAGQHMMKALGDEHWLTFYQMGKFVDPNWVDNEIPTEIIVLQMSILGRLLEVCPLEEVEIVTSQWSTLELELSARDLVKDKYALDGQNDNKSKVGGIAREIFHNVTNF

His-tagged Sec39 = target: T2, His-tagged Sec39 (S. cerevisiae, UniProt Q12745 1-709); experiment: co-purification
T2 sequence (looked up): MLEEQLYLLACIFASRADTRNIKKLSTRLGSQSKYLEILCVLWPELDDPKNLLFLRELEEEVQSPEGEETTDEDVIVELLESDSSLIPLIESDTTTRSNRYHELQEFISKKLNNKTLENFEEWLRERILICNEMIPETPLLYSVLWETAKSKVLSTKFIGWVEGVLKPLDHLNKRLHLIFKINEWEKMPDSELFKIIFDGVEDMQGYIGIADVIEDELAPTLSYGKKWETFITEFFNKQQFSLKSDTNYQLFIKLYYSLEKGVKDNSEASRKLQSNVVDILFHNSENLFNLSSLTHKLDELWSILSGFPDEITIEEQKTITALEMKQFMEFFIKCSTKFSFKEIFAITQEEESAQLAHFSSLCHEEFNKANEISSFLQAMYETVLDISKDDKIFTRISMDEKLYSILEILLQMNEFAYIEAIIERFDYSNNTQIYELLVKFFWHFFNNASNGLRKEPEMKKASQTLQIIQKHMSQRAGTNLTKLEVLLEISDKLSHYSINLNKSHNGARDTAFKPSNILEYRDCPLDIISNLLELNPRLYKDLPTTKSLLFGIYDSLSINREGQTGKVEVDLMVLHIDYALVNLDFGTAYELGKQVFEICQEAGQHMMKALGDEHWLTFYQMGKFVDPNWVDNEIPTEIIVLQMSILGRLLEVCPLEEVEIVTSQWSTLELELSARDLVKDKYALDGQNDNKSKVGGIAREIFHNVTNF

Sec39 (residues 1–709) [4] = target: T1, Sec39 (residues 1–709); experiment: co-purification
Sec39 residues 1–392 = target: T3, Sec39 residues 1–392 (S. cerevisiae, UniProt Q12745 1-392); experiment: SEC
T3 sequence (looked up): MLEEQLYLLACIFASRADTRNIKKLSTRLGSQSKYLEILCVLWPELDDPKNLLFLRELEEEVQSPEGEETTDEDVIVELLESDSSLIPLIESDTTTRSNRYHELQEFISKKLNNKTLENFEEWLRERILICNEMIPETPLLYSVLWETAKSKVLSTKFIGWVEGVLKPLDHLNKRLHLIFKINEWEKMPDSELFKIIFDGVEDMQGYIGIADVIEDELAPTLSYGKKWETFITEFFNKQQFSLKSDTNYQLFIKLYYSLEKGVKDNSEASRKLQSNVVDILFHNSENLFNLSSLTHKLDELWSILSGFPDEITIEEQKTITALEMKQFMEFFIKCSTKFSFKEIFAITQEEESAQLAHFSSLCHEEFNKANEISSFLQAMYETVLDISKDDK

Kd [1]: 10 nM
Molecule: Dsl1 (residues 1–754) (from UniProt P53847 1-754) (natural protein)

Kd [2]: 100 nM
Molecule: Tip20 (residues 1–701) (from UniProt P33891 1-701) (natural protein)

binding result (Sec39 (residues 1–709) [3]): binds
Molecule: MAETSNDPFLSYVLSSKQLTNLNRLRRKAVTKQLG (peptide, UniProt P53146 1-35, looked up) [N-terminal peptide of Use1 (residues 1–35)]

binding result (His-tagged Sec39): binds
binding result (Sec39 (residues 1–709) [4]): binds
B1: Use1 cytoplasmic domain (residues 1–212), TF tag removed (domain or fragment, S. cerevisiae, UniProt P53146 1-212, looked up)
chain: MAETSNDPFLSYVLSSKQLTNLNRLRRKAVTKQLGSSDDNKVSEEFLRYQHTYQREAFEYLQTKHDAHKIMESQYEQYQSSSKTRRYSIDLDSVDAVDTESQTEYPNEEFIDRNEDSEAVMELRKRLLGKGQNKGLGYETTKSVDRQIEDQDTLQQDLIQDMSKLVGSLKQGAVAFQSALDEDKQVLGAAEIGIQVASQGLMDVSGKLRKYD

binding result (Sec39 residues 1–392): binds
B2: TF-Use1 (residues 1–212 fused to trigger factor) (domain or fragment, S. cerevisiae, UniProt P53146 1-212, looked up)
chain: MAETSNDPFLSYVLSSKQLTNLNRLRRKAVTKQLGSSDDNKVSEEFLRYQHTYQREAFEYLQTKHDAHKIMESQYEQYQSSSKTRRYSIDLDSVDAVDTESQTEYPNEEFIDRNEDSEAVMELRKRLLGKGQNKGLGYETTKSVDRQIEDQDTLQQDLIQDMSKLVGSLKQGAVAFQSALDEDKQVLGAAEIGIQVASQGLMDVSGKLRKYD
